Measurements: patent publication US20170037149A1 (Amgen, published 2017)
Positions count from the first letter of the chain named.

Target: T1, human FLT3 (human, UniProt P36888 27-993)
T1 construct: On transfected CHO cells, or on the FLT3 positive human AML cell lines EOL-1 / MV4-11 where the row says so; also called hu FLT3; full length human FLT3
Test: FACS, scFv on CHO-human FLT3 pre-incubated with FLT3 ligand (competitor)
Procedure: The detection was performed using mouse anti-FLAG+PE-conjugated goat anti-mouse and the Fluorescence median detected by FACS (median (+ligand)/median (w/o ligand)*100%)
Afterwards cells were not washed but directly stained with FLT3 binder (scFv's). […] As negative control, cells were incubated with an unspecific scFv instead of FLT3 scFv.
For the evaluation of the data, the fluorescence median was detected by FACS.

B1: FL-8 scFv (scFv)
scFv: QVTLKESGPALVKPTETLTLTCTVSGFSLSYARMGVSWIRQPPGKALEWLAQIFSNDEKSYSTSLKSRLTISKGTSNSQVVLTMTNMDPEDTATYYCARIVGYGTGWYGFFDYWGQGILVTVSSGGGGSGGGGSGGGGSDIQMTQSPSSLSASVGDRVTITCRASQGIRNDLGWYQQKPGKAPKRLIYAASSLQSGVPSRFSGSGSGTEFTLTISSLQPEDFATYYCLQHNSYPLTFGGGTKVDIK
notes: periplasmic prep
B1 was tested, and the “median [+ligand]/median [w/o ligand]*100” value was no less than 75%.

B2: FL-31 scFv (scFv)
scFv: B1 scFv with E16Q, V24F, Y31N, Q52H, G74D, N77K, N86D, A164T, D244E
notes: periplasmic prep
B2 was tested, and the “median [+ligand]/median [w/o ligand]*100” value was no less than 75%.

B3: FL-35 scFv (scFv)
scFv: QVTLKESGPALVKPTETLTLTCTVSGFSLNNARMGVSWIRQPPGKALEWLAHIFSNDEKSYSTSLKNRLTISKDSSKTQVVLTMTNVDPVDTATYYCARIVGYGTGWYGFFDYWGQGTQVTVSSGGGGSGGGGSGGGGSDIQMTQSPSSLSASVGDRVTITCRASQDIRDDLVWYQQKPGKAPKRLIYGTSTLQSGVPSRFSGSGSGTEFTLTISSLQPEDFATYYCLQHHSYPLTFGGGTKLEIK
notes: periplasmic prep
With B3 the “median [+ligand]/median [w/o ligand]*100” value was no less than 75%.

B4: FL-19 scFv (scFv)
scFv: QVTLKESGPTLVKPTETLTLTCTVSGFSLSYARMGVSWIRQPPGKALEWLAQIFSNDEKSYSTSLKSRLTISKDTSKSQVVLTMTDMDPEDTATYYCARIVGYGTGWYGYFDYWGQGTQVTVSSGGGGSGGGGSGGGGSDIQMTQSPSSLSASVGDRVTITCRASQDIGDDLGWYQQKPGKAPKRLIYAASTLQSGVPFRFSGSGSGTDFTLTISSLQPEDFATYYCLQHNSYPLTFGGGTKVEIK
notes: periplasmic prep
With B4 the “median [+ligand]/median [w/o ligand]*100” value was no less than 75%.

B5: FL-3 scFv (scFv)
scFv: QVTLKESGPALVKPTETLTLTCTVSGFSLSNARMAVSWIRQPPGKALEWLAHIFSNGEKSYSTSLKSRLTISKDTSKTQVVLTMTNTDPVDTATYFCARIVGYSDWLLPFDHWGQGIMVTVSSGGGGSGGGGSGGGGSDIQMTQSPSSLSASVGDRVTITCRASQNINRFLNWYQQKPGKAPKLLIYAASSLQSGVPSRFSGSGSGTDFTLTISSLQPEDFATYYCLQHNSYPWTFGQGTKVDIK
notes: periplasmic prep
For B5, the “median [+ligand]/median [w/o ligand]*100” value was no less than 75%.

B6: FL-30 scFv (scFv)
scFv: QVTLKESGPVLVKPTQTLTLTCTFSGFSLSNARMGVSWIRQPPGKALEWLALIYWNDDKRYSPSLKSRLTITKDTSKNQVVLTMTNMDPVDTATYYCARMVGYGSGWYAYFDYWGQGTLVTVSSGGGGSGGGGSGGGGSDIQMTQSPSSLSASVGDRVTITCRASQGIRNDLGWYQQKPGKAPKRLIYAASSLQSGVPSRFSGSGSGTEFTLTISSLQPEDFATYYCLQHNSYPLTFGGGTKVEIK
notes: periplasmic prep
In the case of B6, the “median [+ligand]/median [w/o ligand]*100” value is reported as no less than 75%.

B7: FL-18 scFv (scFv)
scFv: QVTLKESGPVLVKPTQTLTLTCTFSGFSLSNARMGVSWIRQPPGKALEWLAHIFSNDEKSFSTSLKNRLTISKDTSKSQVVLTMTNMDPVDTATYYCARMVGYGSGWYAYFDYWGQGTQVTVSSGGGGSGGGGSGGGGSDIQMTQSPSSLSASVGDRVTITCRASQSISSYLNWYQQKPGKAPKLLIYAASSLQSGVPSRFSGSGSGTDFTLTISSLQPEDFATYYCLQHNSYPLTFGGGTKVEIK
notes: periplasmic prep
For B7, the “median [+ligand]/median [w/o ligand]*100” value was no less than 75%.

B8: FL-41 scFv (scFv)
scFv: B7 scFv with A46C, G239C
notes: periplasmic prep
For B8, the “median [+ligand]/median [w/o ligand]*100” value was no less than 75%.

B9: FL-7 scFv (scFv)
scFv: QVTLKESGPTLVKPTETLTLTCTVSGFSLNNARMGVSWIRQPPGKALEWLAHIFSNDEKSYSTSLKNRLTISKDSSKTQVVLTMTNVDPVDTATYYCARIVGYGTGWFGYFDYWGQGTQVTVSSGGGGSGGGGSGGGGSDIQMTQSPSSLSASVGDRVTITCRASQDIRTDLAWYQQKPGKAPKRLIYAASSLQSGVPSRFSGSGSGTEFTLTISSLQPEDFATYYCLQHNRYPLTFGGGTKVDIK
notes: periplasmic prep
In the case of B9, the “median [+ligand]/median [w/o ligand]*100” value is reported as no less than 75%.

B10: FL-17 scFv (scFv)
scFv: QVTLKESGPTLVKPTETLTLTCTVSGFSLSNARMGVSWIRQPPGKALEWLANIFSNDEKSYSTSLKSRLTISKGTSKSQVVLTMTNVNPVDTGTYYCARIVGYGSGWYGYFDYWGQGTLVTVSSGGGGSGGGGSGGGGSDIQMTQSPSSLSASVGDRVTITCRASQDIRNDLGWYQQKPGKAPKRLIYATSIRQSGVPSRFTGSGSGTEFTLTISGLQPEDFATYFCLQHNSFPLTFGGGTKVEIK
notes: periplasmic prep
B10 was tested, and the “median [+ligand]/median [w/o ligand]*100” value was no less than 75%.

B11: FL-40 scFv (scFv)
scFv: B10 scFv with A46C, G239C
notes: periplasmic prep
In the case of B11, the “median [+ligand]/median [w/o ligand]*100” value is reported as no less than 75%.
